Experiments:
sRAGE = biological target: T1, sRAGE (Homo sapiens, UniProt Q15109); test: Biacore surface plasmon resonance, binding to immobilized sRAGE; conditions: Hb-AGE 32, amyloid γ-globulins 62.5, albumin-AGE 3.9 μg ml^−1
T1 construct: comprises three domains spanning amino-acid residues 23-325; His-tag with thrombin cleavage site (N); made in house; host or cells: 293E cells (printed as '293E hamster embryonic kidney cells')
Description: The soluble extracellular part, of the receptor for AGE (sRAGE) was cloned, expressed and purified as follows (Q.-H. Zeng, Prof. P. Gros, Dept. of Crystal- & Structural Chemistry, Bijvoet Center for Biomolecular Research, Utrecht University, Utrecht, the Netherlands). Human cDNA of RAGE was purchased from RZPD (clone IRALp962E1737Q2, RZPD, Berlin, Germany). For PCRs, the gagatct[…] forward primer was used comprising a BglII site, and the gcggccgc[…] reverse primer with a NotI site. The soluble extracellular part of RAGE comprises three domains spanning amino-acid residues 23-325. The PCR product was cloned into a pTT3 vector, containing an amino-terminal His-tag and a thrombin cleavage site. The sRAGE was expressed in 293E hamster embryonic kidney cells at the ABC-protein expression facility (Utrecht University, Utrecht, the Netherlands). […]
Binding of cross-β structure conformation containing peptides/proteins was studied using surface plasmon resonance technology with a Biacore 2000 apparatus (Biacore AB, Uppsala, Sweden). […] Binding of albumin-AGE was determined with a solution of 3.9 μg ml^−1 albumin-AGE in running buffer. albumin-AGE was filtered on a Millex-GV 0.22 μm filter unit (Millipore). […] Binding of Hb-AGE was also tested after centrifugation for 10 min. at 16,000*g alternative to filtration. tPA activation before and after filtration was assessed with a Plg-activation assay. […]

human BiP = biological target: T2, human BiP (Homo sapiens, UniProt P11021); test: ELISA, binding of BiP to coated (mis)folded proteins; conditions: coated protein
T2 construct: made in house; host or cells: HEK293E cells, transient transfection, protein purified from the medium
T2 sequence (P11021 19-654): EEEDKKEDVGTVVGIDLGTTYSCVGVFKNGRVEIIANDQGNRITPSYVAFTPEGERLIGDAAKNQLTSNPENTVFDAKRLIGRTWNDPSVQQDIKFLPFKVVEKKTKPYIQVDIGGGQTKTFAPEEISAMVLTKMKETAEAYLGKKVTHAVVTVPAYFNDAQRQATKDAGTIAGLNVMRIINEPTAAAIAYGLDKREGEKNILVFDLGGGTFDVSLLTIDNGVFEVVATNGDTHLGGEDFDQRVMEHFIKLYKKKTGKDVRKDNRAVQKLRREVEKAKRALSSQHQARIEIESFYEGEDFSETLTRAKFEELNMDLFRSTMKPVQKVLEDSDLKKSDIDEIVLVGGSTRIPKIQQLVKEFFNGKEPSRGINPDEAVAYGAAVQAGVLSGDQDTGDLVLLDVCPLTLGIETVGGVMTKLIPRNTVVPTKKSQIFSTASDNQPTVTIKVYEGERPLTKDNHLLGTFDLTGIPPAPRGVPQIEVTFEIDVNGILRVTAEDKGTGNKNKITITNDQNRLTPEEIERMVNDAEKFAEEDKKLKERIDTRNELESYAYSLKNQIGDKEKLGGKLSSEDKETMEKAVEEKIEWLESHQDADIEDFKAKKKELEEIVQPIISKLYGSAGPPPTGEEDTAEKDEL
Description: The plates were blocked using Blocking reagent (Roche 1112589). A dilution series of the protein of interest was applied to the coated proteins and wells were subsequently washed using TBS-T (50 mM Tris pH 7.3, 150 mM NaCl and 0.1% Tween20). Bound protein is detected by the FLAG-tag using 1:3000 anti-FLAG-HRP (Sigma A-8592) in PBS-T, or by 1:1000 Ni-NTA-HRP (Qiagen 34530) in PBS-T. The HRP reaction Is performed using the TMB substrate (Biosource 4501103 or Tebu Bio 101TMB100-500), stopped using 10% H2SO4 and absorbance was measured at 450 nm.

[1] = ThT fluorescence of CpG-ODN-protein mixtures; format: physicochemical; conditions: for increase in ThT fluorescence / ThT fluorescence enhancement: 1 mg ml^−1 protein; for increase in ThT fluorescence: 30 min. at room temperature (FIG. 4D, E); for ThT fluorescence enhancement: overnight
Description: Fluorescence of ThT-protein/peptide adducts was measured as follows. […] Fluorescence was measured at 485 nm upon excitation at 435 nm. Background signals from buffer, buffer with ThT and protein/peptide solution without ThT were subtracted from corresponding measurements with protein solution incubated with ThT. […] Fluorescence was measured in triplicate on a Hitachi F-4500 fluorescence spectrophotometer (Ltd., Tokyo, Japan).
Enhancement of ThT fluorescence was measured similarly as described above. […]

T1 sequence (Q15109 23-325): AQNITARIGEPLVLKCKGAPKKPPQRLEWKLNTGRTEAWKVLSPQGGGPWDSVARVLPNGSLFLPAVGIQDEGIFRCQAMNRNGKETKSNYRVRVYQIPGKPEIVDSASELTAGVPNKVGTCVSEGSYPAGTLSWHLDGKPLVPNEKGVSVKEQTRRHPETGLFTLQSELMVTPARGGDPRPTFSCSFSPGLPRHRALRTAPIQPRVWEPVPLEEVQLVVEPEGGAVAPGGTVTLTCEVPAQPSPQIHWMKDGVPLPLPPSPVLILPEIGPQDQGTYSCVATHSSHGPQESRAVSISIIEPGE

Row | binding to immobilized sRAGE (sRAGE) | binding of BiP (detection anti-FLAG-HRP) (human BiP) | binding of BiP (detection Ni-NTA-HRP) (human BiP; FIG. 7A) | Substance | increased ThT fluorescence ([1]; 1 mg ml^−1 protein exposed to 21.4 μg ml^−1 CPG-ODN (FIG. 4F)) | increase in ThT fluorescence ([1]; 10.4 μg ml^−1 CPG-ODN) | ThT fluorescence enhancement ([1]; 10.7 μg ml^−1 CPG-ODN) [factor] | ThT fluorescence enhancement ([1]; 21.4 μg ml^−1 CPG-ODN) [factor] | increase in ThT fluorescence ([1]; 21.7 μg ml^−1 CPG-ODN) [times] | ThT fluorescence enhancement ([1]; 42.8 μg ml^−1 CPG-ODN) [factor]
1 | bind | high affinity | low affinity | albumin-AGE: advanced glycation end-product modified bovine serum albumin |  |  |  |  |  | 
2 |  |  |  | lysozyme: chicken egg-white lysozyme | no effect | approximately 8 times | 1.1 | 1.2 | ~7 | 1.4

Reference: patent publication US20080207488A1, “Method for Detecting Peptides Comprising a Cross-B Structure” (priority 2005, published 2008)
